Values quoted from earlier work, collected in article PMC2935699.

Columns and labels:
Galanin receptor 1 = Galanin receptor 1 (UniProt P47211)
Galanin receptor 3 = Galanin receptor 3 (UniProt O60755)
Galanin receptor 2 = Galanin receptor 2 (UniProt O43603)
Sequence of UniProt O43603 (O43603 whole entry): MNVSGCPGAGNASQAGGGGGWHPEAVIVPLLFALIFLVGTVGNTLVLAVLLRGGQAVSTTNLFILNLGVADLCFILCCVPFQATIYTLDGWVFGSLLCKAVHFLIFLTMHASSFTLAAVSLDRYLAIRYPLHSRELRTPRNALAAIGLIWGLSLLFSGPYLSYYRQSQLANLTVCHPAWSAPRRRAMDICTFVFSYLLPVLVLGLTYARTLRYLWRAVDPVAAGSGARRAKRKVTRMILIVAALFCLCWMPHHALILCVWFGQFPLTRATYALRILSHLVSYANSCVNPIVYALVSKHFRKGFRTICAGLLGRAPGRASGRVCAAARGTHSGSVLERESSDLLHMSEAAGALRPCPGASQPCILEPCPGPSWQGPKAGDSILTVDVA

Sequence of UniProt P47211 (P47211 whole entry): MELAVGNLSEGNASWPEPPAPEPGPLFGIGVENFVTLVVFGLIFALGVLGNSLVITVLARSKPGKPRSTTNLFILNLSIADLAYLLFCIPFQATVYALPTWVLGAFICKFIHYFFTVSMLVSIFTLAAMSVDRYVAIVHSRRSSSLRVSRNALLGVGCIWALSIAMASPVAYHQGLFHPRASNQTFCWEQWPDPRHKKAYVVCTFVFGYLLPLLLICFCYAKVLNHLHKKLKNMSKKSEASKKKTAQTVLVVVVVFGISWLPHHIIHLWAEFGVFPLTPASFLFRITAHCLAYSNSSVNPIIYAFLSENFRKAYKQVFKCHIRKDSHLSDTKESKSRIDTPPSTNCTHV
Sequence of UniProt O60755 (O60755 whole entry): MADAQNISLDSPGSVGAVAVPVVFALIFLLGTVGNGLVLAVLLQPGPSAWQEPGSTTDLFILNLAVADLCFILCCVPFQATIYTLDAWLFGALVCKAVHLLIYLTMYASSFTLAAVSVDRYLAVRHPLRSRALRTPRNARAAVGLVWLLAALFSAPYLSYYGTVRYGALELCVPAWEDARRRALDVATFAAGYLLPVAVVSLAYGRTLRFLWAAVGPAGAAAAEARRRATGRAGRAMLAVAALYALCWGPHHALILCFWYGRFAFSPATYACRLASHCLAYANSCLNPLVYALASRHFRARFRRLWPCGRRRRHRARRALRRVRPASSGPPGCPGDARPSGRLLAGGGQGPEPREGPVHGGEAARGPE

Galanin 1-16 1-16 (from UniProt P22466)
Ki (Galanin receptor 1): 4.8 nM
Ki (Galanin receptor 3): 49.6 nM
Ki (Galanin receptor 2): 5.66 nM
